Test results from patent US20120071419A1 (POSTECH ACADEMY INDUSTRY FOUNDATION, published 2012).
Residue numbers refer to the chain shown, from its start. Values belong to the binder of their own block, whether it stands above or below them.

Experiments:
[1] = molecular target: T1, EGFR (Epidermal Growth Factor Receptor) (human, UniProt P00533 26-444, limits assumed); assay: phage ELISA, wells coated with 4 ug/ml EGFR, anti-M13-HRP, OD 650 nm
T1 construct: also called EGF receptor
Description: (§1) Individual colonies were randomly selected from the output titration plate of the last round, and inoculated in 1 ml of super broth (3% tryptone, 2% yeast extract, 1% 3-[N-Morpholino] propanesulfonic acid [MOPS], pH 7.0). after overnight incubation at 37° C., the supernatant was used for phage ELISA (enzyme-linked immunosorbant assay). microtitration plate wells were coated with 4 μg/ml EGFR-containing PBS at 4° C. for one night, and blocked with 3% BSA-containing PBS at 37° C. for 1 hour. The plate was cultured with the phage-containing supernatant at 37° C. for 2 hours, and washed with 0.05% Tween-20-containing PBS (PBST) three times. Thereafter, HRP (horseradish peroxidase)-conjugated anti-M13 antibody (Sigma) diluted in a blocking buffer solution (1:2000) was added thereto and cultured at 37° C. for 1 hour. 50 μl of TMB substrate solution (Pierce, Rockford, Ill.) was added to each well, and OD was measured at 650 nm.

[2] = molecular target: T1, EGFR (Epidermal Growth Factor Receptor); assay: phage ELISA, wells coated with 4 ug/ml EGFR, anti-M13-HRP
Description: as §1

B1: wild type 1OZJ scaffold (B chain of 1OZJ, crystal structure of Smad3-MH1) (other, human, UniProt P84022 1-144, looked up)
chain: MSSILPFTPPIVKRLLGWKKGEQNGQEEKWCEKAVKSLVKKLKKTGQLDELEKAITTQNVNTKCITIPRSLDGRLQVSHRKGLPHVIYCRLWRWPDLHSHHELRAMELCEFAFNMKKDEVCVNPYHYQRVETPVLPPVLVPRHT
notes: domain: Smad3-MH1; 6; also called WT
- binding result [1]: no binding
- OD at 650 nm [2]: 0.086 OD

B3: clone 8 of the 1OZJ scaffold (designed binder)
chain: B1 chain with K44G, E107P, E110N, N114T, D118P
notes: domain: Smad3-MH1
- OD at 650 nm [2]: 1.18 OD

B4: clone 7 of the 1OZJ scaffold (designed binder)
chain: B1 chain with K44L, E107A, E110A, N114M, D118C
- OD at 650 nm [2]: 1.74 OD

B5: clone 6 of the 1OZJ scaffold (designed binder)
chain: B1 chain with K44S, E107G, E110S, D118L
- OD at 650 nm [2]: 1.83 OD

B8: clone 9 of the 1OZJ scaffold (designed binder)
chain: B1 chain with K44A, E107Q, E110I, N114L, D118P
- OD at 650 nm [2]: 1.75 OD

Further lines, results first:

- OD at 650 nm [2]: 0.959 OD
B2: clone 31 of the 1OZJ scaffold (designed binder)
chain: B1 chain with K44G, E107H, E110P, N114K, D118W
notes: domain: Smad3-MH1

- OD at 650 nm [2]: 0.964 OD
B6: clone 55 of the 1OZJ scaffold (designed binder)
chain: B1 chain with K44I, E107K, E110R, N114P
notes: domain: Smad3-MH1

- OD at 650 nm [2]: 0.919 OD
B7: clone 43 of the 1OZJ scaffold (designed binder)
chain: B1 chain with K44R, E107H, E110N, N114G, D118A
notes: domain: Smad3-MH1

- OD at 650 nm [2]: 1.16 OD
B9: clone 54 of the 1OZJ scaffold (designed binder)
chain: B1 chain with K44C, E107I, E110D, N114P, D118R
notes: domain: Smad3-MH1

- OD at 650 nm [2]: 1.02 OD
B10: clone 53 of the 1OZJ scaffold (designed binder)
chain: B1 chain with K44A, E107S, E110S, N114S, D118I
notes: domain: Smad3-MH1
